Data set [1] concerns the target ERα (UniProt P03372 1-595). Put plainly: EMSA. (In general: A gel shift assay detects complexes by their altered migration in electrophoresis.)
Data set [2] has as its target T1, RORα (UniProt P35398 1-523).
T1 sequence: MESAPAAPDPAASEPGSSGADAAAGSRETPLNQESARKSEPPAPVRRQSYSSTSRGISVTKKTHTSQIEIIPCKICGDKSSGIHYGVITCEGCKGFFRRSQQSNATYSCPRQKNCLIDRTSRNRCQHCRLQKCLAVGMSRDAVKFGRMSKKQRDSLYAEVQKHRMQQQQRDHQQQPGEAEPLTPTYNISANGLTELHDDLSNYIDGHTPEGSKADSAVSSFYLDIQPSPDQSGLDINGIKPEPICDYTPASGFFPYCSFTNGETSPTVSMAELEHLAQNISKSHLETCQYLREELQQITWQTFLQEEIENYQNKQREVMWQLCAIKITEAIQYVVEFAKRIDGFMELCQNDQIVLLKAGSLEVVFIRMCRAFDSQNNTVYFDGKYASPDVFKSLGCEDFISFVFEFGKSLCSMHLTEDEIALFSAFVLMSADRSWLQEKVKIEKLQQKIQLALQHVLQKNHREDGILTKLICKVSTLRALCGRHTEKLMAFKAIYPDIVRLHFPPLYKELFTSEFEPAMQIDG
Put plainly: EMSA.

Chain of ERα (P03372 whole entry): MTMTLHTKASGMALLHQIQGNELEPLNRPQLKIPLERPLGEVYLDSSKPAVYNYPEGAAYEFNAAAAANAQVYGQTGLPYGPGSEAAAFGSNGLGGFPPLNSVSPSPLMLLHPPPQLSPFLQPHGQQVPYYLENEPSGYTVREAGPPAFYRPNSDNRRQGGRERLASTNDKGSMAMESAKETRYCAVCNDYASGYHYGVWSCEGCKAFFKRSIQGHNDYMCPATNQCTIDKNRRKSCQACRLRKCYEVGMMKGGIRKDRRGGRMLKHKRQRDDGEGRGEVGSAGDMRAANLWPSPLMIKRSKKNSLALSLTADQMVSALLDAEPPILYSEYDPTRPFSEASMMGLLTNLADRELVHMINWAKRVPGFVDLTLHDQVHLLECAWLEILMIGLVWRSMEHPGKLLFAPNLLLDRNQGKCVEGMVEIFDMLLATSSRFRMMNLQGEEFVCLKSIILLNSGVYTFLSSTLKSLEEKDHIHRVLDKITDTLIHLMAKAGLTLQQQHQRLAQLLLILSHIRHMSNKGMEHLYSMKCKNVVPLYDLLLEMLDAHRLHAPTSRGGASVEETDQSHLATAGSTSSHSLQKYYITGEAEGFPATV

B1: SULT1E1 ERE (dsDNA)
DNA 1: GAGGGTCAAGATAAACATT
DNA 2: AATGTTTATCTTGACCCTC
On to B1, for which the binding result in data set [1] was “binds”.

B2: SULT1E1 RORE (dsDNA)
DNA 1: AGAGAATTGAGGTCACAG
DNA 2: CTGTGACCTCAATTCTCT
With B2, the binding result in data set [2] was “binds”.
